Source: the DeepSol protein solubility set

assay: soluble on expression in E. coli; label from the status in PepcDB or PDB records

Sequence | soluble on expression in E. coli
MASIWVGHRGTVRDYPDFSPSVDAEAIQKAIRGIGTDEKMLISILTERSNAQRQLIVKEYQAAYGKELKDDLKGDLSGHFEHLMVALVTPPAVFDAKQLKKSMKGAGTNEDALIEILTTRTSRQMKDISQAYYTVYKKSLGDDISSETSGDFRKALLTLADGRRDESLKVDEHLAKQDAQILYKAGENRWGTDEDKFTEILCLRSFPQLKLTFDEYRNISQKDIVDSIKGELSGHFEDLLLAIVNCVRNTPAFLAERLHRALKGIGTDEFTLNRIMVSRSEIDLLDIRTEFKKHYGYSLYSAIKSDTSGDYEITLLKICGGDD | soluble
MKFYRRIEPIKAMTFDLDDTLYDNHPVIIRMESELLTWLQQTHPAVAHMEKADWLQVKKHVLQQSPDLKSDVTLWRLVQLKHAFLSVGYDEAQAQVAAEEGVQLALEWRSQFDVPQQSL | not soluble
MSSSDTFEKLYIEQHDAPSEEQVEEWLATGEVLKLEQIVLDGRGHMLREKKTVNASSNEFLSGLTQYLTKIDAIHKAVEEGDVRRVKSLIDRPLLSTARDNYGMTPIHKALLHGQTNTVRFLLGRFPSCVNATDHRIFGILVDSVSNGVFNKSPLKKNAGRTPLHYAAADPNGEHMIKVLQKSGGDAFIEDKHGHTPFYYRTHGQRLNVRSMKDNAVMNQLISGQLSRPLLQDLEEDIYDWIHTGNIGKLEELVLTGYADLLLGRNHEVDDADSIGFLEVLPQYQAKIQSIHKAVETGNLRAVKLLTDRKKLSLCRDTRGLSPLHKAIVFERTDIAKYLIRNYPQSVNAMDQKKRTPLHYAAALKDGGYLYKVMRKSGADPNIYDCNGRPAKYYLKHTGEIDLSAMRLDTRAALKQVLHNRVAPSYLESSIQQWLRDGQLAKLEQLVLSGCGDLLQSRTSTHTETQAFLDRLPDYMDKIDGIHKSIKEGNLDKVKELMKTKKLAIARDRFGCTPLHSAVVHEHTEIVRYIAGHYNSVLNAPDYNKRTAMHYAAAARDGGHYLKILGKAGADPMAVDNEGRTPDYYRRNAVIDLKLIKDRDEDFETINEEYLEDGPLIDSPATPDSGSEGSFIDSARMLDDEDESIERHRFEKAFRGKIDLPTSENGVYLARTVAPVLTKALAEVLLRRPADPIGFIAEWLSKYVVEIPRHNGSH | not soluble
MLILSTEKEPNFEYEEITRSFLSNMLAFTRGHFTGDISHFSPIVLAEMEKDPNWLEEAAGGMQGVIVQSLLEDENFSSVEQLKGELARLIRLYFALAKDNLTENQESLYVDLFDKFTFLLLCSDEFIMYLDSQPKF | soluble
MGSDKIHHHHHHMIDFLDVQKETPRIRIAIDRVGVKNIKFPLKIHDDFAFLTLNLFVDVPADRKGADMSRAVESIQKVINAGSYGERIGDIGIAICDEALSRFNYSEKAQCEVNIQYYRRSGERYLEYRMYVETAKDRKQIMKNEIGISYVTMTACPCAMETTRALISMDNPDISDAISAIPTITHNQRNVTKLTVDNRSKMITVWDLADVMERVQGKPLDSLLKRVEEGRLVYSAHRNPKFVEDVVREIAYEAARVLGVPDEATIKVSSESDESIHPHNAYAEIDTTAGELRKLHLH | not soluble
MGSSHHHHHHSSGLVPRGSHMASMTGGQQGRDPFESYNPEFFLYDIFLKFCLKYIDGEICHDLFLLLGKYNILPYDTSNDSIYACTNIKHLDFINPFGVAAGFDKNGVCIDSILKLGFSFIEIGTITPRGQTGNAKPRIFRDVESRSIINSCGFNNMGCDKVTENLILFRKRQEEDKLLSKHIVGVSIGKNKDTVNIVDDLKYCINKIGRYADYIAINVSSPNTPGLRDNQEAGKLKNIILSVKEEIDNLEKNNIMNDEFLWFNTTKKKPLVFVKLAPDLNQEQKKEIADVLLETNIDGMIISNTTTQINDIKSFENKKGGVSGAKLKDISTKFICEMYNYTNKQIPIIASGGIFSGLDALEKIEAGASVCQLYSCLVFNGMKSAVQIKRELNHLLYQRGYYNLKEAIGRKHSKS | soluble
REEELNTEKVVAAIANPVENEVRKVWEDVVEKIEQRVAVIEQASHKLLQNKVSEEILSKAKVEAHKLAGSLGMFGSDEGSQIAQEIESLLDNGKKLKASGGKHLGQVVEALHQELENLKSG | soluble
MQQVFNVSVPVPDDVVIISKEEYLNLLSDNEQGKWWDIDNLQELLGIGRSKLINDILLNPDIKKEVDLSINPNGFIVYPKGKGSRYKILATKARKYFEDNFGS | not soluble
MGSDKIHHHHHHMQEYKACAAHTDILKKYGFKVEKGFANFETAYKASYKKQNGPRIAILAEYDALPKIGHGCGHNAYGVTSIAGGILIKELIQKLDLQGEILVIGTPAEETNGAKVDMAKLGIFNDIDVAMSVHPSGEAHIRSGKSHAMEALQFTFKGKTAHAAASPHEGINALDGVLNLFNSINALRQQILSSARIHGIISNGGEAANIIPDLAIANFYVRAETLEYLKELVKKVKNCAKGAALASDTELEITNYETSFANLVTNKKLMKLYEKNLRTLGVTDIRDKEGLGSTDMGDVSHCCPTIHPYFPLTTRHLVGHTIEFATATIQEEAYKGMKEACLAMALSCLDIFEKPEILKEIKEEFYQTFKK | not soluble
MVRIRWFFIRHAESEANVVERWRIAGRSEAARLTERGERQARVVGEAVAIRLEQVLRVDGGDAGGVSGDAGRRRVLAPVAFTSPLLRARQTAALVLEQVAQPVKLEPVDDLAEVYQGLWEDALRSEVHTPETLQAMARNPYEFRAPGGEAQADVERRVLRAVSRMSQRVLSLLSLELEENEQTDVIVLVFTHGYVCKCLIRSVLDASPHLTGQIQVDNGALVELWLEPAAQQGALTSAAELGMWTVLRINDTWGQLTASMR | not soluble
MGSDKIHHHHHHMGIYMRDDILDIITLTTDFGTNEGYVGAMKGRILNILKKYNKDAKIIDISHEIKPFNIYHGAYVLLTAIPYFPPSVHVAVIDPTVGSERKSIVIETKSGYYLVGPDNGLFTYVAEKLGIKRIIKIDEERYKPSSTFHGRDVYAVVGAEILINNGYDGEELDEMVKIDETKKRVIHIDRFGNIITNIKKDEVTFKYYDTIMIKIRHKNGIEKIIKCKFVKSYFEEKNNFICLINSEGFLEISKFMDNASKLLNVDYLDEIEIIY | not soluble
MSLLKQKILNRESGIITYGITPPKKNNTEEKIKEISQKHIERISGLDIDGLVIYDLQDEKERVSEERPFPFIETIDPQIYSENYLKDLKIPKIIYRCVGKYTPDEFRRLTRPVSGQDAFSVFVGAASRNQSVLLKLSDAYKIRQDVNPDLLLGGVAIPERHMKNTDEHLRIIDKINKGCKYFITQAVYNVEAAKDFLSDYYYYSKNNNLKMVPIIFTLTPCGSTKTLEFMKWLGISIPRWLENDLMNCEDILNKSVSLSKSIFNELMEFCLEKGIPIGCNIESVSVRKVEIEASIALAKDIKYIMKGEGHHHHHH | soluble
PLIAVFIGSILFDYRLAQETADTAYDHSLNNAALDIAAYIQTVGLSPKLRLTPEAEAMLRHDAVDKIFFAVRDSNKQLLIGDAQLPAYPGAIHKRPVFIDDVYQGEKIRATTQLIMVDANEITITVAETMREREHASNRIL | not soluble
MAHHHHHHMKQSDFIFFVLRFWHFVPPYIIEKYAVSAFLNEDFLRAIRLKIEELRPPGRREPHSCVLKEHSDTSFTRKEVLPPPERLSNPVAMDHWVLYEPKVQNFPLVDGFFLVDSNPMTLVGLRMTTAGEHRTTTSTVRQFTECLAAYFNGWEELSRDMSWEIINVQHADSTPINDWQRCDVVDSDNVSRAENREIAAFWEEEVRQYIAAVSSGDF | not soluble
GVEFMAGYYDTKNQALNPVSRTERPYPIVTVQNYVEKAIKEGRIQMNVEIEAFTTDIRMIVIGNVFEWCLRNGEADFEGNMVRSLGKYLDSTLD | not soluble
MSLPKPQLRIIAGDFEDPRIIALLAHHFATMRSTGPEESCHVMPLGTMRQADLDFFAAWDGDALAGFGAVKQLGDGHGEIKSMHTAAAYRGRGVGQAVLDHLSTHARALGLQRLSLETGAGDFFVPARAMYARNGFQTCDPFGDYKPDPNSVFMTRMLEGHHHHHH | not soluble
MSRRRQFDDEDEVQMKRRRGAPLIEDVEKKLQGVIGKVGENTGSSIECNLDKLTAFLHDDLEKYRASIIDIIAGCAIYLPNRVTVYTTLVGLLNSKNFNFGGDVVEKLISEQQDLLSKQKYQEAQNLAIFLCDLGNSGVLTAQSIGEYLESFIAAAFEENMPQVRNDYYIQTVLRCLPWIGKELTEKAPEQMENIGEAIGKYLELRNKNHVALLQVWREGSTDQKQEDYLESLSAQIEALRNADWVENHIPRHYSGFETTLQDALQHNLPSFQSPEHTSDMIYPYPLVVFRLFQDADCSAFSSKPLPGDSSIDRFLFEGEIAWIIEKNQFNRKACARELLAFAEENPSVPIGFLIFETIFGQMLRLPHAPYPAIFHCSLVLELLKLKPDDYPQILVQTVECIYRRADSMQPVCIDRMVDWFSFHLSNFQYRYTWTDWKDCLNKDAFSGSQIFVREVIEKCRRFGSYEKIIAALPQDFVKIHPCSPEVRYLIDEEDTALVQRAETFTQMFQERQPAEAFLNELKSNDENDELPYNINEFGLFVMVMLKMASKTYSHNFSALFRYQTTLKTVCDASELYQEKLLETLYSCWKTNQQMLMILTDKLLKMQVIDCSAVVGWLFDEKMWQEHDRQWLFEVLNQALEKLTRQINVVEKDIKELTEKTENKIKEEDDEESDIKMDEDETKEEKFKQDLEDLENNKEKLERMVTFQKGLFNDFLIAFIEEIKNAATSNTSEMDGSGDTPGTQTPKFMWLRGRFCHVLLAHAETLLKHSSNIADEVFSEGTDPSIIECFNQFQSLRL | not soluble
MGSDKIHHHHHHMSDFSPIAWTEGMFLRPQHMQQQERFLQHQQARTAKNNNPLAWGVVSYEVNYGLLPLGQFGLDRIDCVFPDNTLACLPEQSPLPTAITVPAGTLDQLVYLVLPVAKSNGMNISSSEQNQITRYSYEDHNIVDTSVGSDAMEVLQVAKLDCRLKLQSEDRSGYVSIAIARVIDVSEEGVIRLDKKFIPACIGIEHIKTLMNMTTEVTGMINQRAEAIAGRLSQSQGTSSSIADFLMLQLLNKYQPIFEHYGVVNHIHPELLFRTLISFSGELSTFSSPNKRPPKFPVYQHDNLTYVFSNTMVIVNHGLSSVLEQSATELILEKTKFGVYFSTIADKSMLDNAEFILAVKANVPHDELRQRLPSQIKIGSVETIRELVNNQLPGIGISNLPVAPRQVPYHAGYHYFQLDKNNSHWIKLKSSGGVAMHISGAYPELQIELWAVSI | not soluble
MSLKKAAIITIGSELLEGLILNKNAQFLCQELKNLGYRVVKVSTVGDDLISISEEVKTLLLKVDLLILTGGLGPTQDDLTRDAVAKVLNRSLKLNEELLSKIKEKIKKYHSEIPQNIERQALVIDGAEVLDNPVGSAPGQLLTVDGKIVILLPGPPRELIPMFNALKDRLRTPDALYQVVLKYYSIPEAVLEDLLKDILYSQNIVEVATMADHVEGVRLRLTTHMKNKEYLDEMVKKILDKTGEHLYGVNDEKMEEVVVRLLKDRKKTLAVAESCTGGMLSSLVVNVPGASEVFIGGVVAYSNDLKKHILGVREDTLKKHGAVSEECVQEMTEGLKKLTGADICVSISGIAGPSGGTPEKPVGTVFIDIFEHEHITMRYNFTGDRNMIRTRSAMMALENLRKYLKGRERVEGGSHHHHHH | soluble
MARLNITFSPQAFEDYKYFQQNDKKMVKKINELLKSIDRNGALEGIGKPEKLKSNLTGYYSRRINHEHRLVYTVDDNHIKIASCKYHY | not soluble
MNNGKLFLVGTPIGNLKDITLRALETLQNCDVIAAEDTRQSLKLLNHFDIKKPLISYHKFNENNRSSELMDMVREGKKVALVTDAGMPGISDPGSVIVEKFIENNLEFEVIPG | not soluble
MIYDVFLNFSGEDVRGTFLNHFFKELERKSIIAFKDNESERSQNLSPELTHAIRESRITVVVFSKNYSSSTWCLNELLQVYECYQSMDLPVIPIFYGLDPSHVRKQTGEFGKNFEKTCRNETEACVYQWRRALCDVSNFLGYHSPNWANEATMIEQVANDVLFKLNLTPSSDFSEFVGIEDHIAAMNSVDKR | soluble
